Laboratory results: publication PMC7159911 (Science Advances, 2020)

Molecular target: the molecule itself
Test: cryo-EM structure

B1: rBAT (SLC3A1), human, N-terminal 10x His tag (natural protein, UniProt Q07837-1 1-685, looked up)
chain: MAEDKSKRDSIEMSMKGCQTNNGFVHNEDILEQTPDPGSSTDNLKHSTRGILGSQEPDFKGVQPYAGMPKEVLFQFSGQARYRIPREILFWLTVASVLVLIAATIAIIALSPKCLDWWQEGPMYQIYPRSFKDSNKDGNGDLKGIQDKLDYITALNIKTVWITSFYKSSLKDFRYGVEDFREVDPIFGTMEDFENLVAAIHDKGLKLIIDFIPNHTSDKHIWFQLSRTRTGKYTDYYIWHDCTHENGKTIPPNNWLSVYGNSSWHFDEVRNQCYFHQFMKEQPDLNFRNPDVQEEIKEILRFWLTKGVDGFSLDAVKFLLEAKHLRDEIQVNKTQIPDTVTQYSELYHDFTTTQVGMHDIVRSFRQTMDQYSTEPGRYRFMGTEAYAESIDRTVMYYGLPFIQEADFPFNNYLSMLDTVSGNSVYEVITSWMENMPEGKWPNWMIGGPDSSRLTSRLGNQYVNVMNMLLFTLPGTPITYYGEEIGMGNIVAANLNESYDINTLRSKSPMQWDNSSNAGFSEASNTWLPTNSDYHTVNVDVQKTQPRSALKLYQDLSLLHANELLLNRGWFCHLRNDSHYVVYTRELDGIDRIFIVVLNFGESTLLNLHNMISGLPAKMRIRLSTNSADKGSKVDTSGIFLDKGEGLIFEHNTKNLLHRQTAFRDRCFVSNRACYSSVLNILYTSC
modifications: five glycosylation sites in the extracellular domain (residues 111 to 685)
- stoichiometry N: 2
